3 molecules from patent US20120316071A1 (published 2012) can be followed below.

Assay [1] concerns the target T1, rHuman Erythropoietin R/Fc Chimera, CF (R&D Systems Cat#963-ER) (human, UniProt P19235 25-250).
T1 construct: Bought Fc chimera; also called EPO R/Fc; Epo R; Fc part of the bought chimera not given
T1 sequence (looked up): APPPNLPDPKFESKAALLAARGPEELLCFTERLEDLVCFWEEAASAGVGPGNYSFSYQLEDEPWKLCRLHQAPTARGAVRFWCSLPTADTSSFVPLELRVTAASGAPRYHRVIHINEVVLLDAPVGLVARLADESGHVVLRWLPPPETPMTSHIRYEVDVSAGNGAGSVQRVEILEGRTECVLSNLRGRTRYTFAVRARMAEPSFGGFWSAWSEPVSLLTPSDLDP
Kind of assay: MSD Multispot ECL, antigen spotted on plate, Fab at 240 nM; blank spot 316.

For assay [2], the target named is T2, rHuman Notch-1/Fc Chimera, CF (R&D Systems Cat#3647-TK) (human, UniProt P46531 19-526).
T2 construct: Bought Fc chimera; Fc part of the bought chimera not given
Described as above.

In assay [3] the target is T3, rHuman CD44/Fc Chimera, CF (R&D Systems Cat#3660-CD) (human, UniProt P16070 21-220).
T3 construct: Bought Fc chimera; Fc part of the bought chimera not given
Described as above.

For assay [4], the target named is T4, Recombinant Human DLL4 (R&D Systems Cat#1506-D4/CF) (human, UniProt Q9NR61 27-524).
T4 construct: Bought recombinant protein; also called rHuman DLL4; delta-like protein 4
The assay is described as above.

The target in assay [5] is T5, rHuman P-Cadherin/Fc Chimera, CF (R&D Systems Cat#861-PC) (human, UniProt P22223 108-654).
T5 construct: Bought Fc chimera; Fc part of the bought chimera not given
The assay is described as above.

In assay [6] the target is T6, rHuman Notch-1/Fc Chimera, CF (R&D Systems Cat#3647-TK) (human, UniProt P46531 19-526).
T6 construct: Bought recombinant protein; Fc part of the bought chimera not given
Kind of assay: Multispot ECL (MSD) assay, antigen spotted on plate, Fab at 1.56 µM; blank spot 4357.

Assay [7] addresses T7, Recombinant Human DLL4 (R&D Systems Cat#1506-D4/CF) (human, UniProt Q9NR61 27-524).
T7 construct: Bought recombinant protein; also called delta-like protein 4; rHuman DLL4
The assay is described as above.

Assay [8] has as its target T8, rHuman IGF-1 sR, (IGF-1 sR), CF (R&D Systems Cat#391-GR) (human, UniProt P08069 31-932).
T8 construct: Bought recombinant soluble receptor; also called insulin-like growth factor-1 soluble receptor
Described as above.

The target in assay [9] is T9, rHuman ErbB2/Fc Chimera, CF (R&D Systems Cat#1129-ER) (human, UniProt P04626 23-652).
T9 construct: Bought recombinant protein; also called human epidermal growth factor 2 receptor (ErbB2); Fc part of the bought chimera not given
Described as above.

Assay [10] has as its target T10, rHuman Erythropoietin R/Fc Chimera, CF (R&D Systems Cat#963-ER) (human, UniProt P19235 25-250).
T10 construct: Bought recombinant protein; also called EPO R/Fc; Epo R; Fc part of the bought chimera not given
T10 sequence (looked up): T1 sequence (looked up)
The assay is described as above.

Assay [11] addresses T11, rHuman EGF R/Fc Chimera, CF (R&D Systems Cat#344-ER) (human, UniProt P00533 25-645).
T11 construct: Bought recombinant protein; also called epidermal growth factor receptor (EGF R); Fc part of the bought chimera not given
Described as above.

Assay [12] has as its target T12, rHuman CD44/Fc Chimera, CF (R&D Systems Cat#3660-CD) (human, UniProt P16070 21-220).
T12 construct: Bought recombinant protein; Fc part of the bought chimera not given
The description is as above.

Assay [13] has as its target T13, rHuman HGF R/c-MET/Fc Chimera, CF (R&D Systems Cat#358-MT/CF) (human, UniProt P08581 25-932).
T13 construct: Bought recombinant protein; also called HGF R/Fc; hepatocyte growth factor receptor (HGF R/c-Met); Fc part of the bought chimera not given
The description is as above.

Assay [14] deals with T14, rHuman P-Cadherin/Fc Chimera, CF (R&D Systems Cat#861-PC) (human, UniProt P22223 108-654).
T14 construct: Bought recombinant protein; Fc part of the bought chimera not given
The description is as above.

The target in assay [15] is T15, rHuman Erythropoietin R/Fc Chimera, CF (R&D Systems Cat#963-ER) (human, UniProt P19235 25-250).
T15 construct: Bought from R&D Systems; also called EPO R/Fc; Epo R/Fc chimera; not shown: Fc of the bought chimera
T15 sequence (looked up): T1 sequence (looked up)
Nature of the assay: MSD multispot ECL, antigen spotted on plate, Fab 44.1 nM; blank spot 200.

Assay [16] concerns the target T16, rHuman IGF-1 sR, (IGF-1 sR), CF (R&D Systems Cat#391-GR) (human, UniProt P08069 31-932).
T16 construct: Bought from R&D Systems and called a soluble receptor; also called insulin-like growth factor-1 soluble receptor
Described as above.

Assay [17] addresses T17, rHuman HGF R/c-MET/Fc Chimera, CF (R&D Systems Cat#358-MT/CF) (human, UniProt P08581 25-932).
T17 construct: Bought from R&D Systems; also called HGF R/Fc; hepatocyte growth factor receptor (HGF R/c-Met); not shown: Fc of the bought chimera
The assay is described as above.

B1: Fab VH6-1_IGHD3-3*01_IGHJ4*01 & V4-3_IGLJ4*01 (Fab, V domains shown)
VH: QVQLQQSGPGLVKPSQTLSLTCAISGDSVSSNSAAWNWIRQSPSRGLEWLGRTYYRSKWYNDYAVSVKSRITINPDTSKNQFSLQLNSVTPEDTAVYYCAREYYDFWSGYYTDYFDYWGQGTLVTVSS
VL: QPVLTQPTSLSASPGASARLTCTLRSGINLGSYRIFWYQQKPESPPRYLLSYYSDSSKHQGSGVPSRFSGSKDASSNAGILVISGLQSEDEADYYCMIWHSSASFVFGGGTQLIIL
notes: Tested as a purified germline Fab made in E. coli; The VH was cloned into plasmid A (CH1 constant region, His6 and Flag tags) and the lambda VL into plasmid E (lambda CL)
Take B1: the ECL signal in assay [1] was found to be 478; in [2], 368; in [3] it was 470; in assay [4], 1270; in assay [5], 383.

B2: Fab VH1-46_IGHD7-27*01_IGHJ2*01 & L6_IGKJ1*01 (Fab, V domains shown)
VH: QVQLVQSGAEVKKPGASVKVSCKASGYTFTSYYMHWVRQAPGQGLEWMGIINPSGGSTSYAQKFQGRVTMTRDTSTSTVYMELSSLRSEDTAVYYCARANWGYWYFDLWGRGTLVTVSS
VL: not shown
notes: Germline Fab made in E. coli; VH was cloned in Plasmid A (CH1 constant region, His6 and Flag tags) and the kappa VL in Plasmid C (kappa CL); Only the variable domains are tied to this Fab by name
On to B2, for which the ECL signal in assay [6] was determined as 9450; in assay [7] it was 10900; in [8] it was 6910; in [9], 7580; in [10], 9480; in assay [11], 7830. The ECL signal in assay [12] was found to be 7600; in assay [13] it was 10300; in assay [14], 15000.

B3: Fab VH1-46_IGHD3-10*01_IGHJ4*01 & B3_IGKJ1*01 (Fab, V domains shown)
VH: QVQLVQSGAEVKKPGASVKVSCKASGYTFTSYYMHWVRQAPGQGLEWMGIINPSGGSTSYAQKFQGRVTMTRDTSTSTVYMELSSLRSEDTAVYYCAREYYYGSGSYYNDYFDYWGQGTLVTVSS
VL: not shown
notes: Tested as a Fab made in E. coli; VH was cloned into Plasmid A (CH1 constant region, His6 and Flag tags); The kappa VL was cloned into Plasmid C (kappa CL)
In the case of B3, the ECL signal came to 2390 in [15], 309 in assay [16] and 336 in [17].
